Measured values taken from US20260092093A1 (TJ BIOPHARMA SHANGHAI, published 2026).

T1: recombinant hIL-18Rα extracellular domain (human, UniProt Q13478 22-329, biotin label (selection) or fluorescent probe (single-clone FACS), sites not given)
T1 construct: extracellular domain; also called hIL-18Rα ECD; hIL-18Rα-ECD
T1 sequence (looked up): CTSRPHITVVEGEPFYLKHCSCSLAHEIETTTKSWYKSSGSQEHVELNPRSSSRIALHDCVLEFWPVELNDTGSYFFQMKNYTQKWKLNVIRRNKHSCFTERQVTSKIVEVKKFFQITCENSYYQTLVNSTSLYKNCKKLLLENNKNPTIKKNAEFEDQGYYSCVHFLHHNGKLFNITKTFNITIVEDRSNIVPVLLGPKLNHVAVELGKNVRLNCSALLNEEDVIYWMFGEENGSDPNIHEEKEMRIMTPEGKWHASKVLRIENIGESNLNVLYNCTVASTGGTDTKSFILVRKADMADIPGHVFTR

B1: SEQ ID NO 15 (ligand)
chain: YFPKLRSKLSVIRNLNDQVLFIDQGNRPLFEDMTDSDCRDNAPRTIFIISMYKSSRGRGMAVTISVKCEKISTLSCENKIISFKEMNPPDVIKDTKSDIIFFQTSVPGHDNKMQFESSSYEGYFLACEKERDLFKLILKKEDELGDRSIMFTVQNED
B2: SEQ ID NO 19 (ligand)
chain: YFPKLRSKLSVIRNLNDQVLFIDQGNRPLFEDMTDSDCRDNAPRTIFIISMYKWSYPRGMAVTISVKCEKISTLSCENKIISFKEMNPPDSIKDTKSDIIFFQSSVPGHDNKMQFESSSYEGYFLACEKERDLFKLILKKEDELGDRSIMFTVQNED
B3: SEQ ID NO 51 (ligand)
chain: YFPKLRSKLSVIRNLNDQVLFIDQGNRPLFEDMTDSDCRDNAPRTIFIISMYKWSAVRGMAVTISVKCEKISTLSCENKIISFKEMNPPDSIKDTKSDIIFFQSSVPGHDNKMQFESSSYEGYFLACEKERDLFKLILKKEDELGDRSIMFTVQNED
B4: SEQ ID NO 16 (ligand)
chain: YFPKLTSKLSVIRNLNDQVLFIDQGNRPLFEDMTDSDCRDNAPRTIFIISMYKHSTYRGMAVTISVKCEKISTLSCENKIISFKEMNPPDAIKDTKSDIIFFQRSVPGHDNKMQFESSSYEGYFLACEKERDLFKLILKKEDELGDRSIMFTVQKED
B5: SEQ ID NO 46 (ligand)
chain: YFPKLGSKLSVIRNLNDQVLFIDQGNRPLFEDMTDSDCRDNAPRTIFIISMYKHSDPRGMAVTISVKCEKISTLSCENKIISFKEMNPPDVIKDTKSDIIFFQMSVPGHDNKMQFESSSYEGYFLACEKERDLFKLILKKEDELGDRSIMFTVQNED
B6: SEQ ID NO 30 (ligand)
chain: YFPKLKSKLSVIRNLNDQVLFIDQGNRPLFEDMTDSDCRDNAPRTIFIISMYKHSIHRGMAVTISVKCEKISTLSCENKIISFKEMNPPDVIKDTKSDIIFFQVSVPGHDNKMQFESSSYEGYFLACEKERDLFKLILKKEDELGDRSIMFTVQNED
B7: SEQ ID NO 31 (ligand)
chain: YFPKLKSKLSVIRNLNDQVLFIDQGNRPLFEDMTDSDCRDNAPRTIFIISMYKWSARRGMAVTISVKCEKISTLSCENKIISFKEMNPPDPIKDTKSDIIFFQSSVPGHDNKMQFESSSYEGYFLACEKERDLFKLILKKEDELGDRSIMFTVQNED
B8: SEQ ID NO 20 (ligand)
chain: YFPKLKSKLSVIRNLNDQVLFIDQGNRPLFEDMTDSDCRDNAPRTIFIISMYKFSTVRGMAVTISVKCEKISTLSCENKIISFKEMNPPDGIKDTKSDIIFFQHSVPGHDNKMQFESSSYEGYFLACEKERDLFKLILKKEDELGDRSIMFTVQNED
B9: SEQ ID NO 25 (ligand)
chain: YFPKLKSKLSVIRNLNDQVLFIDQGNRPLFEDMTDSDCRDNAPRTIFIISMYKLSGVRGMAVTISVKCEKISTLSCENKIISFKEMNPPDTIKDTKSDIIFFQRSVPGHDNKMQFESSSYEGYFLACEKERDLFKLILKKEDELGDRSIMFTVQNED
B10: SEQ ID NO 18 (ligand)
chain: YLPKLRSKLSVIRNLNDQVLFIDQGNRPLFEDMTDSDCRDNAPRTIFIISMYKWSTSRGMAVTISVKCEKISTLSCENKIISFKEMNPPDSIKDTKSDIIFFQSSVPGHDNKMQFESSSYEGYFLACEKERDLFKLILKKEDELGDRSIMFTVQKED
B11: SEQ ID NO 34 (ligand)
chain: YFPKLKSKLSVIRNLNDQVLFIDQGNRPLFEDMTDSDCRDNAPRTIFIISMYKQSTWRGMAVTISVKCEKISTLSCENKIISFKEMNPPDCIKDTKSDIIFFQRSVPGHDNKMQFESSSYEGYFLACEKERDLFKLILKKEDELGDRSIMFTVQNED
B12: SEQ ID NO 36 (ligand)
chain: YFPKLRSKLSVIRNLNDQVLFIDQGNRPLFEDMTDSDCRDNAPRTIFIISMYKWSRPRGMAVTISVKCEKISTLSCENKIISFKEMNPPDSIKDTKSDIIFFQYSVPGHDNKMQFESSSYEGYFLACEKERDLFKLILKKEDELGDRSIMFTVQNED
B13: SEQ ID NO 29 (ligand)
chain: YFPKLTSKLSVIRNLNDQVLFIDQGNRPLFEDMTDSDCRDNAPRTIFIISMYKHSYARGMAVTISVKCEKISTLSCENKIISFKEMNPPDVIKDTKSDIIFFQRSVPGHDNKMQFESSSYEGYFLACEKERDLFKLILKKEDELGDRSIMFTVQNED
B14: SEQ ID NO 48 (ligand)
chain: YFFKLKSKLSVIRNLNDQVLFIDQGNRPLFEDMTDSDCRDNAPRTIFIISMYKPSPPRGMAVTISVKCEKISTLSCENKIISFKEMNPPDTIKDTKSDIIFFQYSVPGHDNKMQFESSSYEGYFLACEKERDLFKLILKKEDELGDRSIMFTVQNED
B15: SEQ ID NO 32 (ligand)
chain: YFPKLRSKLSVIRNLNDQVLFIDQGNRPLFEDMTDSDCRDNAPRTIFIISMYKHSSRRGMAVTISVKCEKISTLSCENKIISFKEMNPPDIIKDTKSDIIFFQYSVPGHDNKMQFESSSYEGYFLACEKERDLFKLILKKEDELGDRSIMFTVQNED
B16: SEQ ID NO 24 (ligand)
chain: YFDKLGSKLSVIRNLNDQVLFIDQGNRPLFEDMTDSDCRDNAPRTIFIISMYKWSPWRGMAVTISVKCEKISTLSCENKIISFKEMNPPDNIKDTKSDIIFFQRSVPGHDNKMQFESSSYEGYFLACEKERDLFKLILKKEDELGDRSIMFTVQNED
B17: SEQ ID NO 47 (ligand)
chain: YFPKLRSKLSVIRNLNDQVLFIDQGNRPLFEDMTDSDCRDNAPRTIFIISMYKLSTVRGMAVTISVKCEKISTLSCENKIISFKEMNPPDGIKDTKSDIIFFQHSVPGHDNKMQFESSSYEGYFLACEKERDLFKLILKKEDELGDRSIMFTVQNED
B18: SEQ ID NO 53 (ligand)
chain: YFPKLRSKLSVIRNLNDQVLFIDQGNRPLFEDMTDSDCRDNAPRTIFIISMYKLSGWRGMAVTISVKCEKISTLSCENKIISFKEMNPPDVIKDTKSDIIFFQRSVPGHDNKMQFESSSYEGYFLACEKERDLFKLILKKEDELGDRSIMFTVQNED
B19: SEQ ID NO 40 (ligand)
chain: YFPKLKSKLSVIRNLNDQVLFIDQGNRPLFEDMTDSDCRDNAPRTIFIISMYKLSGARGMAVTISVKCEKISTLSCENKIISFKEMNPPDVIKDTKSDIIFFQRSVPGHDNKMQFESSSYEGYFLACEKERDLFKLILKKEDELGDRSIMFTVQNED
B20: SEQ ID NO 42 (ligand)
chain: YFEKLRSKLSVIRNLNDQVLFIDQGNRPLFEDMTDSDCRDNAPRTIFIISMYKWSPDRGMAVTISVKCEKISTLSCENKIISFKEMNPPDVIKDTKSDIIFFQVSVPGHDNKMQFESSSYEGYFLACEKERDLFKLILKKEDELGDRSIMFTVQNED
B21: SEQ ID NO 45 (ligand)
chain: YFPKLRSKLSVIRNLNDQVLFIDQGNRPLFEDMTDSDCRDNAPRTIFIISMYKHSYGRGMAVTISVKCEKISTLSCENKIISFKEMNPPDAIKDTKSDIIFFQTSVPGHDNKMQFESSSYEGYFLACEKERDLFKLILKKEDELGDRSIMFTVQNED
B22: SEQ ID NO 33 (ligand)
chain: YFGKLKSKLSVIRNLNDQVLFIDQGNRPLFEDMTDSDCRDNAPRTIFIISMYKLSTRRGMAVTISVKCEKISTLSCENKIISFKEMNPPDPIKDTKSDIIFFQRSVPGHDNKMQFESSSYEGYFLACEKERDLFKLILKKEDELGDRSIMFTVQNED
B23: SEQ ID NO 52 (ligand)
chain: YFWKLKSKLSVIRNLNDQVLFIDQGNRPLFEDMTDSDCRDNAPRTIFIISMYKPSSHRGMAVTISVKCEKISTLSCENKIISFKEMNPPDVIKDTKSDIIFFQLSVPGHDNKMQFESSSYEGYFLACEKERDLFKLILKKEDELGDRSIMFTVQNED
B24: SEQ ID NO 37 (ligand)
chain: YFPKLRSKLSVIRNLNDQVLFIDQGNRPLFEDMTDSDCRDNAPRTIFIISMYKGSGIRGMAVTISVKCEKISTLSCENKIISFKEMNPPDGIKDTKSDIIFFQRSVPGHDNKMQFESSSYEGYFLACEKERDLFKLILKKEDELGDRSIMFTVQNED
B25: SEQ ID NO 23 (ligand)
chain: YFPKLKSKLSVIRNLNDQVLFIDQGNRPLFEDMTDSDCRDNAPRTIFIISMYKGSGTRGMAVTISVKCEKISTLSCENKIISFKEMNPPDAIKDTKSDIIFFQRSVPGHDNKMQFESSSYEGYFLACEKERDLFKLILKKEDELGDRSIMFTVQNED

The binders below were run against T1, recombinant hIL-18Rα extracellular … (assay: single-clone FACS, yeast display, 10 nM labelled hIL-18Rα ECD).
Protocol: Following the screens described in Example 2, single clone FACS analysis was performed to verify the binding of selected yeast cell surface-expressed IL-18 variant polypeptides from Round 4 and Round 5 to 10 nM hIL-18Rα-ECD. Briefly, each yeast clone at the same density was incubated with 10 nM IL-18Rα-ECD labeled by fluorescent probe, respectively, followed by washing step. Then the ratio of fluorescent positive IL-18Rα ECD binding yeasts in the population of each clone were analyzed.
In the case of B1, the “% of fluorescence positive cells” value is reported as 93%.
With B2 the “% of fluorescence positive cells” value was 97.9%.
B3 was tested, and the “% of fluorescence positive cells” value was 83.1%.
With B4 the “% of fluorescence positive cells” value was 93%.
B5 was tested, and the “% of fluorescence positive cells” value was 84.9%.
With B6 the “% of fluorescence positive cells” value was 89.7%.
For B7, the “% of fluorescence positive cells” value was 89.5%.
For B8, the “% of fluorescence positive cells” value was 91.7%.
B9 was tested, and the “% of fluorescence positive cells” value was 90%.
In the case of B10, the “% of fluorescence positive cells” value is reported as 92%.
For B11, the “% of fluorescence positive cells” value was 88.6%.
With B12 the “% of fluorescence positive cells” value was 88.5%.
With B13 the “% of fluorescence positive cells” value was 89.7%.
In the case of B14, the “% of fluorescence positive cells” value is reported as 83.8%.
B15 was tested, and the “% of fluorescence positive cells” value was 88.9%.
In the case of B16, the “% of fluorescence positive cells” value is reported as 90.1%.
For B17, the “% of fluorescence positive cells” value was 84.7%.
With B18 the “% of fluorescence positive cells” value was 82.4%.
With B19 the “% of fluorescence positive cells” value was 87.9%.
In the case of B20, the “% of fluorescence positive cells” value is reported as 87.2%.
With B21 the “% of fluorescence positive cells” value was 86.1%.
With B22 the “% of fluorescence positive cells” value was 88.8%.
In the case of B23, the “% of fluorescence positive cells” value is reported as 83%.
With B24 the “% of fluorescence positive cells” value was 88.4%.
For B25, the “% of fluorescence positive cells” value was 90.8%.
